We go through one substance from PMC9739478.

The test addresses human von Willebrand factor (vWF) (human) (UniProt P04275).

On to “glycoprotein Ib alpha chain (GPIbα) (from UniProt P07359 17-652) (receptor)”, for which the platelet adherence to vWF-coated surface (LDH assay, normalised to PRP only = 100%) in the presence of GPIb-NPs, 1 mg/mL is 72%; the platelet adherence to vWF-coated surface (LDH assay, normalised to PRP only = 100%) in the presence of dual-NPs (GPIbα and anti-CD34 HuscFv on one NP), 1 mg/mL amounted to 76%; the platelet adherence to vWF-coated surface (LDH assay, normalised to PRP only = 100%) in the presence of free GPIb turned out to be 86%.
